Laboratory results from PMC7041945, “Misfolded proteins bind and activate death receptor 5 to trigger apoptosis during unresolved endoplasmic reticulum stress” (eLife, 2020).
No end group written: not given here.

What was measured:
Settings in all cases: both partners purified
[1] = target: T1, FLAG-tagged DR5 long isoform ECD (human); test: SEC; 25 μM recombinant DR5L ECD alone or pre-incubated overnight at 4°C with 100 or 400 μM fluorescein-conjugated peptide or 25 μM TRAIL; SuperDex200 10/300 GL, 30 mM HEPES pH 7.2, 150 mM NaCl; fractions on SDS-PAGE, fluorescence scan and Coomassie
T1 construct: human DR5 ECD, long isoform, residues 72-213; Dimer without peptide by cross-linking; multimers with peptide; also called FLAG-tagged DR5L ECD; recombinant DR5L ECD; source: SF21 (baculovirus), secreted, purified (HisTrapFF, SuperDex200); not shown: FLAG, C-terminal, kept
T1 sequence (chain, as listed by the source): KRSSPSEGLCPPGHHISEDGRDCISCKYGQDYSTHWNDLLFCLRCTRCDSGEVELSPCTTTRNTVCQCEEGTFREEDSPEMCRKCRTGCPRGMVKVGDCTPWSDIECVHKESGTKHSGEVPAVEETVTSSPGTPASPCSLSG

[2] = target: T2, Fc-tagged DR5 ectodomain (long isoform) (human, UniProt O14763 56-210); test: pull-down; Fc-tagged ECD held on Dynabeads Protein G, incubated with peptide in 20 mM HEPES pH 7.2, 100 mM KOAc, 0.2% Tween-20, 1 hr at RT; Coomassie-stained SDS-PAGE
T2 construct: DR5 extracellular domain, long isoform; 55 kDa on SDS-PAGE by the legend; also called Fc-tagged DR5 ECD; Fc-tagged DR5L ECD; source: recombinant, generated and purified at Genentech Inc

[3] = target: T2, Fc-tagged DR5 ectodomain (long isoform); test: peptide or protein array; 18-residue peptides tiled on the array; 500 nM Fc-tagged DR5 ECD in 50 mM HEPES pH 7.2, 250 mM NaCl, 10% glycerol, 1 hr at room temperature; detected with anti-Fc

B1: fluorescein-conjugated MPZ-ecto peptide (peptide)
peptide: FTWRYQPEGGRDAISIFHYA
modifications: also: fluorescein-conjugated, site not given here
notes: stretch of the ectodomain of human myelin protein zero; also called fluorescein-labeled MPZ-ecto peptide; source: synthetic peptide
binding result [1]: binds

B2: MPZ-ecto^VD peptide (peptide)
peptide: VSDDISFTWRYQPEGGRD
notes: stretch of the ectodomain of human myelin protein zero; source: synthetic peptide, GenScript (>95% purity)
binding result [2]: binds

B3: MPZ-ecto peptide (peptide)
peptide: FTWRYQPEGGRDAISIFHYA
notes: stretch of the ectodomain of human myelin protein zero; The array spots are 18-residue peptides; also called spots C18-C19 of the peptide array; source: synthetic peptide, GenScript (>95% purity); as spots C18-C19 on the peptide array of the MIT Biopolymers Laboratory
binding result [3]: binds
